Measured values as given in article PMC4226653 (Journal of molecular biology, 2012).

Assays:
[1] = molecular target: yNup82^NTD•yNup159^T pair (S. cerevisiae, UniProt P40368 1-452; P40477 1425-1460); assay: SEC-MALS
[2] = molecular target: T1, human Nup88 N-terminal domain (residues 1–493) (human, UniProt Q99567 1-493); assay: SEC-MALS
T1 sequence (looked up): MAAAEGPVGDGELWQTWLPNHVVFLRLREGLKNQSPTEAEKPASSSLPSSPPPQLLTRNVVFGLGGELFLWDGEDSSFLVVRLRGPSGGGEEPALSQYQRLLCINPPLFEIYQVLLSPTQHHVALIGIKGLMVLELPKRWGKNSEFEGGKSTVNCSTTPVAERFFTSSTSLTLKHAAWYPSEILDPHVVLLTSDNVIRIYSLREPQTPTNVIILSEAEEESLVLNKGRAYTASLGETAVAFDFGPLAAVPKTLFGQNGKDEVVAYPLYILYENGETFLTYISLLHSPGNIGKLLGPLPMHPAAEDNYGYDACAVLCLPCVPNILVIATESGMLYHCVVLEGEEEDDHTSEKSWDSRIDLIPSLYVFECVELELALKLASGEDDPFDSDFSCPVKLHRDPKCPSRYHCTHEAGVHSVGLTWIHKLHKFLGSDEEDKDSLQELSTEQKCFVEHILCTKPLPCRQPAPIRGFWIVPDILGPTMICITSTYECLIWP

Sequence of yNup82^NTD•yNup159^T pair (P40368 1-452, chain 1 of 2): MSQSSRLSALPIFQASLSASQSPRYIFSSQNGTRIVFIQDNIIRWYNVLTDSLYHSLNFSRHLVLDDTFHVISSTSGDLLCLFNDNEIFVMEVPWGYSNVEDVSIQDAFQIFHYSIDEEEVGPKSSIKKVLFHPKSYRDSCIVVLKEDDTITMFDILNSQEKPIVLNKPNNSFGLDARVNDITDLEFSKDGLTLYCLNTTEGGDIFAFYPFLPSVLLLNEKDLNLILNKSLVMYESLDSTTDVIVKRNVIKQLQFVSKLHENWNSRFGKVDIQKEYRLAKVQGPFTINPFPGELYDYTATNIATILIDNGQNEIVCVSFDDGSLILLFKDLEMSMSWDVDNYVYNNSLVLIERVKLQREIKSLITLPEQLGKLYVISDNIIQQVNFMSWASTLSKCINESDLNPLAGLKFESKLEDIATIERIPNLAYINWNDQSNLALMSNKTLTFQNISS
Sequence of yNup82^NTD•yNup159^T pair (P40477 1425-1460, chain 2 of 2): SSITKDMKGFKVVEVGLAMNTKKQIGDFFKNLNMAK

stoichiometry N [1]: 1 | stoichiometry N [2]: 1
B1: mouse Nup98 autoproteolytic domain (residues 732–880) (domain or fragment, UniProt Q6PFD9 732-880, looked up)
chain: AGIVLTKVGYYTIPSMDDLAKITNEKGECIVSDFTIGRKGYGSIYFEGDVNLTNLNLDDIVHIRRKEVIVYVDDNQKPPVGEGLNRKAEVTLDGVWPTDKTSRCLIKSPDRLADINYEGRLEAVSRKQGAQFKEYRPETGSWVFKVSHF
